Experimental findings from patent US20220227832 are described below.

The target in this series is Muc16 CAR 53B6 with a V5 tag attached to its N-terminus via matriptase cleavable linker TPS6 45aa.
Chain of Muc16 CAR 53B6 with a V5 tag attached to its N-terminus via matriptase cleavable linker TPS6 45aa (chain, as listed by the source): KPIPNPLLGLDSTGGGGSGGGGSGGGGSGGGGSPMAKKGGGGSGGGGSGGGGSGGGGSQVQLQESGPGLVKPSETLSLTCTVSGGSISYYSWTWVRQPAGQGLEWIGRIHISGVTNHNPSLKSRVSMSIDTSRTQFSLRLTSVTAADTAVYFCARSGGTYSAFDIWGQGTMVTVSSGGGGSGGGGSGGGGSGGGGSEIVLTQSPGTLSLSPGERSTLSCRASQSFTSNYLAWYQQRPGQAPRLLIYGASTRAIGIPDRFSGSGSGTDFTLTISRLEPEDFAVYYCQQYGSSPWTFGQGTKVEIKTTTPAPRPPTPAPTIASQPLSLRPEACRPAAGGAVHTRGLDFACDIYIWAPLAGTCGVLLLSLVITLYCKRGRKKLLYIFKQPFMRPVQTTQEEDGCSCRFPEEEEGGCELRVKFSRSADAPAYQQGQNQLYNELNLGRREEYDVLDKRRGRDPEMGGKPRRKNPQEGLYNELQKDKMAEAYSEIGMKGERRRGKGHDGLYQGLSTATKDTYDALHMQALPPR

B1: endogenous matriptase on OVCAR3, MDA-MB-231 and NCI-H292 cells (protein)
chain: MGSDRARKGGGGPKDFGAGLKYNSRHEKVNGLEEGVEFLPVNNVKKVEKHGPGRWVVLAAVLIGLLLVLLGIGFLVWHLQYRDVRVQKVFNGYMRITNENFVDAYENSNSTEFVSLASKVKDALKLLYSGVPFLGPYHKESAVTAFSEGSVIAYYWSEFSIPQHLVEEAERVMAEERVVMLPPRARSLKSFVVTSVVAFPTDSKTVQRTQDNSCSFGLHARGVELMRFTTPGFPDSPYPAHARCQWALRGDADSVLSLTFRSFDLASCDERGSDLVTVYNTLSPMEPHALVQLCGTYPPSYNLTFHSSQNVLLITLITNTERRHPGFEATFFQLPRMSSCGGRLRKAQGTFNSPYYPGHYPPNIDCTWNIEVPNNQHVKVRFKFFYLLEPGVPAGTCPKDYVEINGEKYCGERSQFVVTSNSNKITVRFHSDQSYTDTGFLAEYLSYDSSDPCPGQFTCRTGRCIRKELRCDGWADCTDHSDELNCSCDAGHQFTCKNKFCKPLFWVCDSVNDCGDNSDEQGCSCPAQTFRCSNGKCLSKSQQCNGKDDCGDGSDEASCPKVNVVTCTKHTYRCLNGLCLSKGNPECDGKEDCSDGSDEKDCDCGLRSFTRQARVVGGTDADEGEWPWQVSLHALGQGHICGASLISPNWLVSAAHCYIDDRGFRYSDPTQWTAFLGLHDQSQRSAPGVQERRLKRIISHPFFNDFTFDYDIALLELEKPAEYSSMVRPICLPDASHVFPAGKAIWVTGWGHTQYGGTGALILQKGEIRVINQTTCENLLPQQITPRMMCVGFLSGGVDSCQGDSGGPLSSVEADGRIFQAGVVSWGDGCAQRNKPGVYTRLPLFRDWIKENTGV
Consider B1, for which the “removal of V5 tag (linker cleavage, flow cytometry)” value is recorded as “the endogenous matriptase showed limited activity”.
